Results as given in patent publication US20250250357A1 (NANJING ZAIMING PHARMACEUTICAL, published 2025).
Positions count from the first letter of the chain named.

B1: S009-F7.53.2 (antibody, human IgG1, kappa, V domains shown)
VH: EVQLQQSGPELVKPGASVKIPCKTSGYTFTDYNMDWVKQSHGKSLEWIGDINPNTDGAIYNQKFQNKATLTVDKSSSTAYMELRSLTSEDTAVYYCTRRKLGRKFFDYWGQGTTLTVSS
VL: QIVLTQSPAIMSASPGEQVTMTCSASSSVGYMNWYQQKPGSSPRLLIYDTSNLASGVPVHFSGSGSGTSYSLTISRMEAAFAATYYCQQWYVYPYTFGGGTKLEIKR
notes: Human-murine chimeric antibody, human IgG1 heavy and kappa light constant regions
B2: S009-F7.67.12 (antibody, human IgG1, kappa, V domains shown)
VH: QVQLQQPGTELVKPGASVRLSCRASGYSFSSYWMHWVKQRPGQGLEWLGNINPTTGDINYNEKFRNRATLAVDKSSTTAYLQLTSLTSEDSAVYFCVRHDGFLWGQGTTLTVSS
VL: DIQMTQSPASLSASVGETVTITCRASENIYSYLAWYQQKQGKSPQLLVYYAKTLAEGVSSRFSGSGSGTQFSLKINSLQPEDFGTYYCQHQFGTPRTFGGGTKLEIRR
notes: as for B1
B3: S009-F7.66.12 (antibody, human IgG1, kappa, V domains shown)
VH: QIPLQQSGPELVKPGASVRISCKASDYAFSSSWMNWVKQRPEKGLEWIGRIFVESGNTHYNDKFNGKATLTADKSSRTAYIQLSSLTSEDSAVYFCTRENIFYHGHSSWFAYWGQGTLVTVSA
VL: DIVLTQSPASLVVSLGQRATISCRAGESVDDFGISYVHWYQQKPGQPPKLLIYRAANLESGIPARFSGSGSRTDFTLTINPVETDDVAIYYCQQNNKDPFTFGSGTKLEIKR
notes: as for B1
B4: S009-F7.61.21 (antibody, human IgG1, kappa, V domains shown)
VH: DVQLQQSGPELVEPGASVRIPCKAAGHTFTDYNVDWVKQSHGQSLEWIGDVNPNTDGAIYNQKFEGKATLTVDTSSSTAYMELRSLTSEDTAVYFCARRRLGQGGFDSWGQGTTLTVSS
VL: QVVLTQSPAIMSASPGEKVTLTCGASSSLISKYLYWYQQKPGSSPKLWIYSTSNLASGVPARFSGSGSGTSYSLTISSMEAEDAASYFCHQWSSYPYTFGGGTKVEIKR
notes: as for B1
B5: S009-F7.65.13 (antibody, human IgG1, kappa, V domains shown)
VH: EVQLQQSGPELVKPGTSVKILCKASGDTFTAYNMDWVKQRHGQSLEWIGDINPNTDSTIYNQKFEGKAILTVDKSSSTAYMELRSLTSEDTAVYYCARRKLGRGYFDYWGQGTTLTVSS
VL: QIVLTQSPAIMSASPGEKVTMTCSVNLSVRYIYWYQQKPGSSPRLLIHDTSNLASGVPVRFSGSGSGTSYSLTISRMEAEDAATYYCQQWSSFPYTFGGGTKLEIKR
notes: as for B1
B6: Tab106 (YP218, hIgG1) (antibody, V domains shown)
VH: QQQLEESGGGLVKPEGSLTLTCKASGFDLGFYFYACWVRQAPGKGLEWIACIYTAGSGSTYYASWAKGRFTISKASSTTVTLQMTSLAAADTATYFCARSTANTRSTYYLNLWGPGTLVTVSS
VL: DVVMTQTPASVSEPVGGTVTIKCQASQRISSYLSWYQQKPGQRPKLLIFGASTLASGVPSRFKGSGSGTEYTLTISDLECADAATYYCQSYAYFDSNNWHAFGGGTEVVVRT
notes: Control antibody; YP218 VH and VL recombined into human IgG1 CH and CL expression vectors; also called YP218 human IgG1 antibody
B7: S009-F2.58.8 (antibody, human IgG1, kappa, V domains shown)
VH: QVQLLQSGAELAKPGASVKLSCKASGYTFTSYWVHWVKQRPGQGLEWIGYINPNSGYTKYNQKFKDKATLTADKSSSTAYMQLSSLTYEDSAVYYCADHYYGSSRDYFDYWGQGTTLTVSS
VL: B5 VL with V25A, N26S, L27S, R30S, I32M, K38R, H48Y, S91N, F93Y
notes: human-murine chimeric antibody, human IgG1/kappa constant regions
B8: S009-F2.38.12 (antibody, human IgG1, kappa, V domains shown)
VH: QVQLQQPGTELVKPGASVKLSCKASGYTFTSYWMHWVKQRPGQGLEWIGNINPSNGGTNYNEKIKNKATLTVDKSSSTAYMQLSSLTSEDSAVYYCARWNYYGNYPFDYWGQGTTLTVSS
VL: DIVMTQSQKFMSTTVGDRVSITCKASQNVGTAVAWYQQKPGQSPKLLIYSASNRYTGVPDRFTGSGSGTDFTLTISNMQSEDLADYFCQQYSSYPLTFGAGTKLELKR
notes: as for B7

biological target: T1, human MSLN-R3-his protein (human, UniProt Q13421 487-598); test: ELISA on coated antigen, no antibody (blank, column 'none')
T1 construct: it is put last here; also called human MSLN-R3 protein; hMSLN-R3-his; not shown: His tag
T1 sequence (Q13421 495-606): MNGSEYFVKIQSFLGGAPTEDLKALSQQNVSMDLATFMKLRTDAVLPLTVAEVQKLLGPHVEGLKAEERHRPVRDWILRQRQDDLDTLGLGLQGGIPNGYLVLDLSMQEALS

Binder | OD450
B1 | 0.06 OD
B2 | 0.07 OD
B3 | 0.06 OD
B4 | 0.06 OD
B5 | 0.07 OD
B6 | 0.06 OD

biological target: T2, human MSLN protein endogenously expressed on OVCAR3 tumor cells (human, UniProt Q13421 296-598); test: FACS on OVCAR3 cells
T2 construct: whole, on cells; Endogenous target on OVCAR3 cells; kept apart from the recombinant full-length construct; also called mesothelin
T2 sequence (Q13421 other isoform, or with tags, fused parts or gaps): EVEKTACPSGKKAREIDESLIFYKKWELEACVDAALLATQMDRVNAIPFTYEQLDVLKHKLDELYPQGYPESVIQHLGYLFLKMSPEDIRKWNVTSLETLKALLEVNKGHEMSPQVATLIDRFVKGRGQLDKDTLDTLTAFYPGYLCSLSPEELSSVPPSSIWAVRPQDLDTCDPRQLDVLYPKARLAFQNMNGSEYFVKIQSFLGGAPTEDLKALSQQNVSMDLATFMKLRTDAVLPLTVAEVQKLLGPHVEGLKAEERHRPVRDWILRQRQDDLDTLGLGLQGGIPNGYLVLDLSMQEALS
Description: (§1) The desired cells were expanded to the logarithmic growth phase in a T-75 cell culture flask. […] After the cells from the previous step were subjected to cell counting, the cell pellet was resuspended to 2×10⁶ cells/mL in a blocking buffer of [PBS+2% (w/w) BSA] and added into a 96-well FACS reaction plate at 50 μL/well. A chimeric antibody (a sample to be tested) was added at 50 μL/well, and the plate was incubated on ice for 2 h. […] After the plate was centrifuged and washed 5 times with a PBST buffer, assay and analysis were performed by FACS (FACS CantoII, purchased from BD). Data analysis was performed by software (Flowjo) to obtain the mean fluorescence intensity (MFI) of the cells.

Binder | EC50 | Maximum mean fluorescence intensity
B7 | 1.82 nM | 13100
B8 |  | 4510

biological target: T1, human MSLN-R3-his protein; test: ELISA on coated antigen, antibody 0.0002 nM
Description: (§2) The plate was sealed with a plastic film and incubated at 4° C. overnight. The next day, the plate was washed twice with PBST, and a blocking buffer [PBS+2% (w/w) BSA] was added for blocking at room temperature for 2 h. The blocking buffer was discarded, and a chimeric antibody or negative control antibody serially diluted from 100 nM was added at 50 μL/well. After incubation at 37° C. for 2 h, the plate was washed 3 times with PBST. […] After incubation at 37° C. for 2 h, the plate was washed 5 times with PBST. A TMB substrate was added at 50 μL/well for incubation at room temperature for 5-10 min, and then a stop solution (1.0 N HCl) was added at 50 μL/well.

Binder | OD450
B1 | 0.05 OD
B2 | 0.11 OD
B3 | 0.14 OD
B4 | 0.05 OD
B5 | 0.07 OD
B6 | 0.35 OD

biological target: T3, human MSLN-R2-his protein (human, UniProt Q13421 391-486); test: ELISA on coated antigen, antibody 0.0002 nM
T3 construct: it is put last here; also called human MSLN-R2 protein; hMSLN-R2-his; not shown: His tag
T3 sequence (Q13421 other isoform, or with tags, fused parts or gaps): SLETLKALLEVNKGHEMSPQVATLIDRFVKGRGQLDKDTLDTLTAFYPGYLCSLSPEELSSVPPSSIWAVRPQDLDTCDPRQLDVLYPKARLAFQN

Binder | OD450
B1 | 0.05 OD
B2 | 0.05 OD
B3 | 0.27 OD
B4 | 0.05 OD
B5 | 0.05 OD
B6 | 0.12 OD

biological target: T3, human MSLN-R2-his protein; test: ELISA on coated antigen, antibody 200 nM
Description: as §2

Binder | OD450
B1 | 0.08 OD
B2 | 0.1 OD
B3 | 0.28 OD
B4 | 0.09 OD
B5 | 0.1 OD
B6 | 2.54 OD

biological target: T3, human MSLN-R2-his protein; test: ELISA on coated antigen, antibody 0.002 nM
Description: as §2

Binder | OD450
B1 | 0.05 OD
B2 | 0.05 OD
B3 | 0.05 OD
B4 | 0.05 OD
B5 | 0.05 OD
B6 | 0.11 OD

biological target: T3, human MSLN-R2-his protein; test: ELISA on coated antigen, antibody 0.2 nM
Description: as §2

Binder | OD450
B1 | 0.05 OD
B2 | 0.06 OD
B3 | 0.05 OD
B4 | 0.05 OD
B5 | 0.05 OD
B6 | 0.47 OD

biological target: T3, human MSLN-R2-his protein; test: ELISA on coated antigen, antibody 2 nM
Description: as §2

Binder | OD450
B1 | 0.05 OD
B2 | 0.06 OD
B3 | 0.06 OD
B4 | 0.05 OD
B5 | 0.05 OD
B6 | 1.42 OD

biological target: T4, human MSLN full-length protein (NCBI: AAH09272.1) expressed on HEK293T-hMSLN-B8 cells (human, UniProt Q13421 296-598); test: FACS on HEK293T-hMSLN-B8 cells
T4 construct: Whole encoded precursor
T4 sequence (Q13421 other isoform, or with tags, fused parts or gaps limits assumed): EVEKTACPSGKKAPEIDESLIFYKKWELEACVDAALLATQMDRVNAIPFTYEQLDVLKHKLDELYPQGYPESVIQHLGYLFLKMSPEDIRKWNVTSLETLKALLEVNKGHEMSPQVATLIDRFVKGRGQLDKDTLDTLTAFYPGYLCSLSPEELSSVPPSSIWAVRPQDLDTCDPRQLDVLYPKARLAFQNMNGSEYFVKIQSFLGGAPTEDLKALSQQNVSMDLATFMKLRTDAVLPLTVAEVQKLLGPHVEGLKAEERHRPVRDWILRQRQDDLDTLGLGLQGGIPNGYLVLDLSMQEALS
Description: as §1

Binder | EC50 | Maximum mean fluorescence intensity
B7 | 3.5 nM | 141000
B8 | ~0.82 nM | 97700

biological target: T1, human MSLN-R3-his protein; test: ELISA on coated antigen, antibody 2 nM

Binder | OD450
B1 | 1.71 OD
B2 | 2.45 OD
B3 | 2.25 OD
B4 | 2.17 OD
B5 | 2.39 OD
B6 | 2.33 OD

biological target: T1, human MSLN-R3-his protein; test: ELISA on coated antigen, antibody 0.02 nM

Binder | OD450
B1 | 0.14 OD
B2 | 0.69 OD
B3 | 0.04 OD
B4 | 0.17 OD
B5 | 0.35 OD
B6 | 0.97 OD

biological target: T3, human MSLN-R2-his protein; test: ELISA on coated antigen, antibody 20 nM
Description: as §2

Binder | OD450
B1 | 0.06 OD
B2 | 0.07 OD
B3 | 0.09 OD
B4 | 0.06 OD
B5 | 0.05 OD
B6 | 2.42 OD

biological target: T3, human MSLN-R2-his protein; test: ELISA on coated antigen, antibody 0.02 nM
Description: as §2

Binder | OD450
B1 | 0.05 OD
B2 | 0.05 OD
B3 | 0.05 OD
B4 | 0.05 OD
B5 | 0.05 OD
B6 | 0.17 OD

biological target: T1, human MSLN-R3-his protein; test: ELISA on coated antigen, antibody 20 nM
Description: as §2

Binder | OD450
B1 | 2.42 OD
B2 | 2.49 OD
B3 | 2.37 OD
B4 | 2.39 OD
B5 | 2.34 OD
B6 | 2.26 OD

biological target: T1, human MSLN-R3-his protein; test: ELISA on coated antigen, antibody 200 nM
Description: as §2

Binder | OD450
B1 | 2.69 OD
B2 | 2.75 OD
B3 | 2.6 OD
B4 | 2.61 OD
B5 | 2.63 OD
B6 | 2.12 OD

biological target: T1, human MSLN-R3-his protein; test: ELISA on coated antigen, antibody 0.2 nM
Description: as §2

Binder | OD450
B1 | 0.5 OD
B2 | 1.93 OD
B3 | 1.95 OD
B4 | 0.8 OD
B5 | 1.3 OD
B6 | 1.9 OD

biological target: T5, human MSLN-R3 protein (Met487-Ser606 of NCBI AAH09272.1) expressed on HEK293T-hMSLN-R3 cells (human, UniProt Q13421 487-606); test: FACS on HEK293T-hMSLN-R3 cells
T5 construct: also called Region3
T5 sequence (Q13421 495-614): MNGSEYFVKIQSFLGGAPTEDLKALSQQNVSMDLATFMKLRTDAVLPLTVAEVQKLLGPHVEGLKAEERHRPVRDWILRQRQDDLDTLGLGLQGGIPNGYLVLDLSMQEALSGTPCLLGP
Description: as §1

Binder | Maximum mean fluorescence intensity | binding result
B7 | 366 | no binding
B8 | 136 | no binding

biological target: T1, human MSLN-R3-his protein; test: ELISA on coated antigen, antibody 0.002 nM
Description: as §2

Binder | OD450
B1 | 0.06 OD
B2 | 0.24 OD
B3 | 0.23 OD
B4 | 0.06 OD
B5 | 0.14 OD
B6 | 0.65 OD

biological target: T3, human MSLN-R2-his protein; test: ELISA on coated antigen, no antibody (blank, column 'none')
Description: as §2

Binder | OD450
B1 | 0.07 OD
B2 | 0.06 OD
B3 | 0.07 OD
B4 | 0.07 OD
B5 | 0.07 OD
B6 | 0.07 OD
